Laboratory results reported in patent EP4659811A1 (Université de Strasbourg, dated 2025).

Legend:
[1] = target: T1, VP1 pentamer of BKV genotype II (recombinant) (BK virus genotype II, UniProt P14996 30-300); experiment: ELISA, coated VP1 pentamer
T1 construct: also called GII; VP1 geno II pentamer; not shown: N-terminal His-tag of pESPRIT002; C-terminal biotin acceptor peptide (BAP) of pESPRIT002

[2] = target: T2, VP1 pentamer of BKV genotype IV (recombinant) (BK virus genotype IV, UniProt P14996 30-300); experiment: ELISA, coated VP1 pentamer
T2 construct: also called GIV; VP1 BKV subtype IV; not shown: N-terminal His-tag of pESPRIT002; C-terminal biotin acceptor peptide (BAP) of pESPRIT002

[3] = target: VP1 capsid protein on BKV pseudovirions of genotype IVc2 (A-66H; AB369093) (BK virus genotype IVc2 (A-66H)); experiment: cell-based or functional assay
[4] = target: VP1 capsid protein on BKV pseudovirions of genotype II (GBR-12; AB263920) (BK virus genotype II (GBR-12)); experiment: cell-based or functional assay
[5] = target: VP1 capsid protein on BKV pseudovirions of genotype Ia (BK-D; JF894228) (BK virus genotype Ia (BK-D)); experiment: cell-based or functional assay

Binder | EC50 [1] | EC50 [2] | Neutralization PSV IC50 [3] | Neutralization PSV IC50 [4] | Neutralization PSV IC50 [5] | binding result [1] | binding result [2]
antibody F4P5 (antibody, V domains shown) VH: EVQLVESGGGVVQPGRSLRLSCAASGFTFSNFGMHWVRQPPGKGLEWVAVISYDGSDKFYADSVKGRFTISRDNFKNTLYVQMNSLRAEDTAVYYCAKDRVRTKYYYDHSGPFDYWGRGTLVTVSS VL: SYELTQPPSVSVAPGQTARIACGGNNIGSKSVHWYQQRPGQAPVLVVYDDDDRPSGIPERFSGSNSGNTATLTISRVEAGDEADYFCQVWMTNSDRPVFGGGTKLTVL | 10 µg/mL | 12 µg/mL | 15.9 µg/mL | 0.471 µg/mL | 0.0008 µg/mL |  | 
antibody B10P1 (antibody, V domains shown) VH: EVQLSESGGGLVQPGGSLRLSCAASGFTFSSYAMSWVRQAPGKGLEWVSSLTGSGGSTYYRDSVKGRFTIFRDNSKKTLYMQMNSLRAEDTAVYYCAKEGAYSYDFWYFDLWGRGTLVTVSS VL: EIVLTQSPGTLSLSPGERATLSCRASQTVSGNYLAWYQQKPGQSPSLLIYGASSRATGIPDRFTGSGSGTDFTLTISRLEPADFAVYYCQQYGRPLTFGGGTKVDIK | 2.8 µg/mL | 15 µg/mL | > 50 µg/mL | 0.107 µg/mL | 1.27 µg/mL |  | 
antibody G9P2 (antibody, V domains shown) VH: EVQLLESGGGLVQPGGSLRLSCAASGFTFSSYAMSWVRQAPGKGLEWVSSLTGSGGSTYYRDSVKGRFTIFRDNSKKTLYMQMNSLRAEDTAVYYCAKEGAYSYDFWYFDLWGRGTLVTVSS VL: EIVLTQSPGTLSLSPGERATLSCRASQTVSGNYLAWYQQKPGQSPSLLTYGASSRATGIPDRFTGSGSGTDFTLTISRLEPADFAVYYCQQYGRPLTFGGGTKVEIK | 1.5 µg/mL | 10 µg/mL | > 50 µg/mL | 0.0336 µg/mL | 0.683 µg/mL |  | 
antibody D11P7 (antibody, V domains shown) VH: EVQLVESGGGLVQPGGSLRLSCAASGFTFRSYTMDWVRQAPGKGLEWVSCISGSSNHKYYADSVRGRFTISRDNAKNSLFLQMNSLRAEDSAVYYCAREDDILTPLYGMDVWGPGTTVTVSS VL: QSALTQPASVSGSPGQSITISCTGTSSDVGAYNYVSWYRLRPGKDPHLIIYDVSHRPAGVSNRFSGSKSGNTASLTISGLQAEDEDEYYCCSYAHRGTPLFGGGTKLTVL |  |  | > 50 µg/mL | 0.0901 µg/mL | 0.275 µg/mL | no binding (tested: starting at 50 µg/mL) | no binding (tested: starting at 50 µg/mL)
antibody C11P7 (antibody, V domains shown) VH: EVQLVESGGGLVQPGGSLKLSCAASGFSLSNSEVHWVRQASGKGLEWIGRVRSRANRHATGYTESVNGRFTVSRDDSKNTASLQLESLKIEDTAVYYCTGVRGVISRYFAMDVWGQGTTVTVSS VL: QSALTQPASVSGSPGQSITISCTGTSSDVGAYNYVSWYRLRPGKDPHLIIYDVSHRPAGVSNRFSGSKSGNTASLTISGLQAEDEDEYYCCSYAHRGTPLFGGGTKLTVL | 6 µg/mL | 4 µg/mL | > 50 µg/mL | > 50 µg/mL | > 50 µg/mL |  | 
antibody D7P6 (antibody, V domains shown) VH: EVQLLESGGGLVQPGGSLRLSCAASGFPFSSYAMSWVRQAPGKGLEWVSGITGSASGTYYADSVKGRFTISRDNSKNTLYLRMNSLRAEDTAVYYCAKEGAYSYDYWYFDLWGRGTLVTVSS VL: EIVLTQSPGTLSLSPGERATLSCRASQSVSGSYLAWYQQKPGQTPRLLIYGASSRATGIPDRFSGSGSGTDFTLTINRLDPEDFGVYYCQQYGSLVTFGGGSKVEIK | 0.25 µg/mL | 70 µg/mL | > 50 µg/mL | 0.0103 µg/mL | 0.096 µg/mL |  | 
antibody F2P7 (antibody, V domains shown) VH: EVQLVQSGGGLVQPGGSLKLSCAASGFSSSGSEIHWVRQASGRGLEWIGRVRSTANRHAPGYTESVRGTFTVSRDESKNTASLELKSLKIEDTAVYYCTGVRGVISRYFAMDVWGQGTTVTVSS VL: QSALTQPASVSGSPGQSITISCTGTNSDLGSYNYVSWYRLHPGKDPHLIIYDVTHRPSGVSSRFSGSKSGKTASLTISGLQSEDEAEYFCCSYASVGSPIFGGGTKVTVL | 10 µg/mL | 4 µg/mL | > 50 µg/mL | > 50 µg/mL | > 50 µg/mL |  | 
antibody F3P7 (antibody, V domains shown) VH: QVQLVQSGAEVKKPGASVKVSCKVSGYTFTSYSMHWLRQAPGQRLEWMGWINAGNGDTKYSQKFQGRITISRDTSARTTYMELSSLRSEDTAVFYCARSNSPTVTYNYYYYAMDVWGQGTTVTVSS VL: EIVLTQSPGTLSLSPGERATLSCRASQSVRSSYLAWYQQQAGQAPRLLIYDASSRATGIPDRFSGSGSGTDFSLTISRLDPEDFAVYYCQQYGNSPLTFGGGTKVEIK | 1.5 µg/mL | 1.8 µg/mL | 0.614 µg/mL | 0.0457 µg/mL | > 50 µg/mL |  | 
antibody E4P2 (antibody, V domains shown) VH: QVQLQESGPGLVKPSQTLSLTCTVSGGSISSGGYYWSWIRQHPGKGLEWIGYMYYSGSTNYNPSLKSRVTISVDTSKNQFSLKLTSVTAADTAVYYCARDRRDYGDYYYFGMDVWGQGTTVTVSS VL: QSVLTQPPSVSGAPGQRVTISCTGSSSNIGAGYDVHWYQQLPGTAPKLLIYANSNRPSGVPDRFSGSKSGTSASLAITGLQAEDEANYYCQSYDSSLSVYVVFGGGTKLTVL | 0.025 µg/mL | 0.18 µg/mL | > 50 µg/mL | 0.979 µg/mL | 0.0399 µg/mL |  | 
antibody D3P7 (antibody, V domains shown) VH: QVQLVQSGSELKKPGASVRVSCKASAYTFTNSAINWVRQAPGQGLEWTGWINTNTGNPAYAQGFRGRFVFSLDTSVSEAYLQITNLKAEDTATYYCAVPYNFGGDHNSFHFFGMDVWGQGTTVTVSS VL: QSALTQPASVSGSPGQSITISCTGSSSDVGTYNFVSWYQQQPAKAPKVMIYEGTKRPSGISDRFSGSKSGNTASLTISGLQAEDEADYYCSSYAGGNAFVFGTGTRVSVL | 0.15 µg/mL | 0.3 µg/mL | > 50 µg/mL | > 50 µg/mL | > 50 µg/mL |  | 
